Source: US20200363410A1

How the values were obtained:
[1] = biological target: biotinylated MTC28 (Rv0040c) polypeptide (M. tuberculosis H37Rv)
[2] = biological target: biotinylated Ag85A (Rv3804c) polypeptide (M. tuberculosis H37Rv)
[3] = biological target: biotinylated Ag85B (Rv1886c) polypeptide (M. tuberculosis H37Rv) (UniProt A5U3Q3)
[4] = biological target: biotinylated MPT63 (Rv1926c) polypeptide (M. tuberculosis H37Rv)
[5] = biological target: biotinylated MPT64 (Rv1980c) polypeptide (M. tuberculosis H37Rv)

Sequence of streptavidin (P22629 37-163 limits assumed): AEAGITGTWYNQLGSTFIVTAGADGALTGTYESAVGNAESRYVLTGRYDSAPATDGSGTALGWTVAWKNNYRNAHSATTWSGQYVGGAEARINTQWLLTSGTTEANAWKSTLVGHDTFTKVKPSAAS

streptavidin (from UniProt P22629 37-163)
Extent of biotinylation (share of protein adsorbed on streptavidin beads) [1]: 99.8% | Fold reduction in protein reactivity after adsorption [1]: 500 fold | Extent of biotinylation (share of protein adsorbed on streptavidin beads) [2]: 99.9% | Fold reduction in protein reactivity after adsorption [2]: 4000 fold | Extent of biotinylation (share of protein adsorbed on streptavidin beads) [3]: 99.9% | Fold reduction in protein reactivity after adsorption [3]: 1000 fold | Extent of biotinylation (share of protein adsorbed on streptavidin beads) [4]: 99.9% | Fold reduction in protein reactivity after adsorption [4]: 1000 fold | Extent of biotinylation (share of protein adsorbed on streptavidin beads) [5]: 99.8% | Fold reduction in protein reactivity after adsorption [5]: 500 fold
